Source: article PMC9243176, “Multifaceted regulation of the sumoylation of the Sgs1 DNA helicase” (The Journal of Biological Chemistry, 2022)
Substitutions are numbered along the chain they refer to.

Key:
GST-Esc2-MRΔ = molecular target: T1, GST-Esc2-MRΔ (budding yeast, UniProt Q06340 1-456, truncating residues 154 to 198); assay: pull-down; GST or GST-tagged Esc2 or variants (2.2 μM) incubated with 3.6 μM Ubc9 in T buffer (25 mM Tris-Cl pH 7.4, 10% glycerol, 0.5 mM EDTA, 0.01% Igepal, 1 mM DTT) with 80 mM KCl, 30 min at 4 °C; captured on Glutathione Sepharose 4B; SDS-PAGE, Coomassie blue stain; details: both partners purified
T1 construct: Esc2 of budding yeast lacking the midregion (MR), residues 154 to 198; The methods describe a pET24a construct; source: expressed and purified by published procedures
T1 sequence (looked up): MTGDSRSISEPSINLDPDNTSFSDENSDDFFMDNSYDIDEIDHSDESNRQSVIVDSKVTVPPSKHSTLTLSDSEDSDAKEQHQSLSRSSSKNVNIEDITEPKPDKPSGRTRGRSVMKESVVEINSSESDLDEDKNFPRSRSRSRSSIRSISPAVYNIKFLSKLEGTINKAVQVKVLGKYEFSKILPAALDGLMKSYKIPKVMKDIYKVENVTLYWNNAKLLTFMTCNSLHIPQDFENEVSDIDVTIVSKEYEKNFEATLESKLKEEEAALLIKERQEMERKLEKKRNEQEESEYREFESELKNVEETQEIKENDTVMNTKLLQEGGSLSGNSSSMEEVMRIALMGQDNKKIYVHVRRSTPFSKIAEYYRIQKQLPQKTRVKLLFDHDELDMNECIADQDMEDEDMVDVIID

GST-Esc2-5E = molecular target: T2, GST-Esc2-5E (budding yeast, UniProt Q06340 1-456, K179E | K182E | K183E | K197E | R198E); assay: as above; details: both partners purified
T2 construct: Esc2 of budding yeast with five basic residues of the midregion (MR) replaced by glutamic acid; The methods describe a pET24a construct; source: expressed and purified by published procedures
T2 sequence (looked up): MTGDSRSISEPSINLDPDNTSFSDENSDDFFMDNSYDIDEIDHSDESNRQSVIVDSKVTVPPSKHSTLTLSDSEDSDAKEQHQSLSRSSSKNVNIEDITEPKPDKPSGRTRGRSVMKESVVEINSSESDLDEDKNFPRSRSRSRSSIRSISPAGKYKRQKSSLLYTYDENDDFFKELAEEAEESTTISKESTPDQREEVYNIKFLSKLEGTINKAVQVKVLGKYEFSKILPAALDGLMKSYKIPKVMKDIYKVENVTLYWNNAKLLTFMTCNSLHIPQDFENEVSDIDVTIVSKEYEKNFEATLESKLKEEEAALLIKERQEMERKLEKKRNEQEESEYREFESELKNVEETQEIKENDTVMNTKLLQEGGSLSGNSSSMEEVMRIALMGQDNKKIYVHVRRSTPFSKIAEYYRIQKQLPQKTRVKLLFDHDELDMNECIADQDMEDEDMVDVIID

Esc2 = molecular target: T3, Esc2 (Saccharomyces cerevisiae, UniProt Q06340 1-456); assay: EMSA; 5-80 nM Esc2, 5 nM DNA; strong preference over dsDNA; 35 mM Tris-HCl pH 7.5, 1 mM DTT, 100 ug/ml BSA, 5 mM MgCl2, 130 mM KCl, 30 C, 10 min; native PAGE in TAE (6.5% STR and E3, 7% Esc2); details: protein: recombinant; four-way Holliday junction of 4 strands
T3 sequence: T2 sequence (looked up) with E179K, E182K, E183K, E197K, E198R

Sgs1;Top3;Rmi1 [1] = molecular target: T4, Sgs1;Top3;Rmi1 (Saccharomyces cerevisiae;Saccharomyces …, UniProt P35187;P13099;Q02685 1-1447;1-656;1-241, ||); assay: EMSA; 5-40 nM STR, 5 nM DNA; 35 mM Tris-HCl pH 7.5, 1 mM DTT, 100 ug/ml BSA, 5 mM MgCl2, 130 mM KCl, 30 C, 10 min; native PAGE in TAE (6.5% STR and E3, 7% Esc2); details: protein: recombinant;recombinant;recombinant; tags: Flag;V5;GST; copies: 1;1;1; four-way Holliday junction of 4 strands
T4 sequence (P35187 whole entry, chain 1 of 3): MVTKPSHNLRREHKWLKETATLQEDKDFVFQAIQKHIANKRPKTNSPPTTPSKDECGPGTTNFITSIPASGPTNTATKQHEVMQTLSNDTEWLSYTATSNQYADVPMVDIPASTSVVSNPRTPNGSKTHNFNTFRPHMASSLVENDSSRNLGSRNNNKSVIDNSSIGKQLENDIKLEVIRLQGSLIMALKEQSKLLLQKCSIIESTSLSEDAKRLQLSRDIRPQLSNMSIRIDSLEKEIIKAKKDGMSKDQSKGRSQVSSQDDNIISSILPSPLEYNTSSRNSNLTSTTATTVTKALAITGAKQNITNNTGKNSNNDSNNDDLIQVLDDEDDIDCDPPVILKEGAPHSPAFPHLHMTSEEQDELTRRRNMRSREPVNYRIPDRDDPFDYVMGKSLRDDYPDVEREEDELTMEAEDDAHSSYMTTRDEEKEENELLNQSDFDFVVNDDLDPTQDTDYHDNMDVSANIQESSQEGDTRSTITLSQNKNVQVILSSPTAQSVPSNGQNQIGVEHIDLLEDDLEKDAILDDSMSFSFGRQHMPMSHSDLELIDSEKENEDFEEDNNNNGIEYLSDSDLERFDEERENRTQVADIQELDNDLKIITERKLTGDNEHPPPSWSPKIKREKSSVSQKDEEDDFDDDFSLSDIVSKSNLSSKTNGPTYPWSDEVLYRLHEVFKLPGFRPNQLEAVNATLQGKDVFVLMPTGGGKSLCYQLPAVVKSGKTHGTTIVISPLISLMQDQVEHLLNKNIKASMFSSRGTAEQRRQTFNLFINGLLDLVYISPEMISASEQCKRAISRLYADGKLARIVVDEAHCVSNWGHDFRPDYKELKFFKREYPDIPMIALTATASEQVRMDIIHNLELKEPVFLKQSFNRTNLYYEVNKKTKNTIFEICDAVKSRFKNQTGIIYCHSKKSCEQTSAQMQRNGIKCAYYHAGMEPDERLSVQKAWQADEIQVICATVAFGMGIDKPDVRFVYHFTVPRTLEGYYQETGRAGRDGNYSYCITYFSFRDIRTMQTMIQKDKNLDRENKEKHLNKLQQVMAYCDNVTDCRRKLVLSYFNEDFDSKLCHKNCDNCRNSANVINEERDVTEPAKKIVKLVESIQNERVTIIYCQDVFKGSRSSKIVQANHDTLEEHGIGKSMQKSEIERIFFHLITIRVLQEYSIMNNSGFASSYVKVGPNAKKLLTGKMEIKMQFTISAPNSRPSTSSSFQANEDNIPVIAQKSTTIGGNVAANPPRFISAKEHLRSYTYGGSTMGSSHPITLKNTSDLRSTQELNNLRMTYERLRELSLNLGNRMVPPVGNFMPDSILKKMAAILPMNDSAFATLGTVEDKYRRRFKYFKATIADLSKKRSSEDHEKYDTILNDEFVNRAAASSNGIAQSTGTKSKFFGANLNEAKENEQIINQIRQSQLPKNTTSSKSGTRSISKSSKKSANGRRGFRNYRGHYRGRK
T4 sequence (P13099 whole entry, chain 2 of 3): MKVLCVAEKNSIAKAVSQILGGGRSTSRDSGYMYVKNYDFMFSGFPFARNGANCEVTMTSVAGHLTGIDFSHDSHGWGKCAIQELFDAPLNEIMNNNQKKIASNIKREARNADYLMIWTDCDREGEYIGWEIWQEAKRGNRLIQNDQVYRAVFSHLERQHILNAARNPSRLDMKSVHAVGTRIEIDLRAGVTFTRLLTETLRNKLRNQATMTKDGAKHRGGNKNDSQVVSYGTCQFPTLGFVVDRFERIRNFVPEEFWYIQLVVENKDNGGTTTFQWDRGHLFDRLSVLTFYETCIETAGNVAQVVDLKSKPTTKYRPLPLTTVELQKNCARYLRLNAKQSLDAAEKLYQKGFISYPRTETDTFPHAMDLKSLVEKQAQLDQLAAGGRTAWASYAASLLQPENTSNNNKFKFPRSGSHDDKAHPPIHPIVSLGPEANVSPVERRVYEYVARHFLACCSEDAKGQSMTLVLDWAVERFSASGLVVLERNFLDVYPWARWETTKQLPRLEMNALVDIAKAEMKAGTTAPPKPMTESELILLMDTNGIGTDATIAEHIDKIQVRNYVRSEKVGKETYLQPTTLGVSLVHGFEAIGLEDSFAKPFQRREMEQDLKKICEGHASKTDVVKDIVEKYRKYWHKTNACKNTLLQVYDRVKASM
T4 sequence (Q02685 whole entry, chain 3 of 3): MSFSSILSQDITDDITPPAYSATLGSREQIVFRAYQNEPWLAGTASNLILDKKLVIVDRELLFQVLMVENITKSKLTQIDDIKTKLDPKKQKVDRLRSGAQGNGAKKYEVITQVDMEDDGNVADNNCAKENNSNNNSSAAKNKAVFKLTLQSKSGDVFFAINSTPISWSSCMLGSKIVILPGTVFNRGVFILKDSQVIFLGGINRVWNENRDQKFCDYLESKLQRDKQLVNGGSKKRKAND

Esc2-MRΔ = molecular target: T5, Esc2-MRΔ (Saccharomyces cerevisiae, UniProt Q06340 1-456, del154-198); assay: EMSA; 5-80 nM protein, 5 nM DNA; 35 mM Tris-HCl pH 7.5, 1 mM DTT, 100 ug/ml BSA, 5 mM MgCl2, 130 mM KCl, 30 C, 10 min; native PAGE in TAE (6.5% STR and E3, 7% Esc2); details: protein: recombinant
T5 sequence: T1 sequence (looked up)

Esc2-5E = molecular target: T6, Esc2-5E (Saccharomyces cerevisiae, UniProt Q06340 1-456, K179E;K182E;K183E;K197E;R198E); assay: as above; details: protein: recombinant
T6 sequence: T2 sequence (looked up)

Mms21;Smc5 = molecular target: T7, Mms21;Smc5 (Saccharomyces cerevisiae;Saccharomyces …, UniProt P38632;Q08204 1-267;1-1093, |); assay: EMSA; 5-40 nM E3, 5 nM DNA; less pronounced than STR; 35 mM Tris-HCl pH 7.5, 1 mM DTT, 100 ug/ml BSA, 5 mM MgCl2, 130 mM KCl, 30 C, 10 min; native PAGE in TAE (6.5% STR and E3, 7% Esc2); details: protein: recombinant;recombinant; tags: ;; copies: 1;1; four-way Holliday junction of 4 strands
T7 sequence 1: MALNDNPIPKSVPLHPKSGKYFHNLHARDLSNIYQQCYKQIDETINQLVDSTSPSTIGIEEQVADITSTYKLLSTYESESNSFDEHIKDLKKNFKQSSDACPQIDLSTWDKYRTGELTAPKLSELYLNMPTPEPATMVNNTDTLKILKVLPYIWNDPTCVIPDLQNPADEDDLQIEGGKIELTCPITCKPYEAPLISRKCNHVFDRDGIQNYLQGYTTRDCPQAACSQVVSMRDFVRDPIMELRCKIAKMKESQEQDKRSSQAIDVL
T7 sequence 2: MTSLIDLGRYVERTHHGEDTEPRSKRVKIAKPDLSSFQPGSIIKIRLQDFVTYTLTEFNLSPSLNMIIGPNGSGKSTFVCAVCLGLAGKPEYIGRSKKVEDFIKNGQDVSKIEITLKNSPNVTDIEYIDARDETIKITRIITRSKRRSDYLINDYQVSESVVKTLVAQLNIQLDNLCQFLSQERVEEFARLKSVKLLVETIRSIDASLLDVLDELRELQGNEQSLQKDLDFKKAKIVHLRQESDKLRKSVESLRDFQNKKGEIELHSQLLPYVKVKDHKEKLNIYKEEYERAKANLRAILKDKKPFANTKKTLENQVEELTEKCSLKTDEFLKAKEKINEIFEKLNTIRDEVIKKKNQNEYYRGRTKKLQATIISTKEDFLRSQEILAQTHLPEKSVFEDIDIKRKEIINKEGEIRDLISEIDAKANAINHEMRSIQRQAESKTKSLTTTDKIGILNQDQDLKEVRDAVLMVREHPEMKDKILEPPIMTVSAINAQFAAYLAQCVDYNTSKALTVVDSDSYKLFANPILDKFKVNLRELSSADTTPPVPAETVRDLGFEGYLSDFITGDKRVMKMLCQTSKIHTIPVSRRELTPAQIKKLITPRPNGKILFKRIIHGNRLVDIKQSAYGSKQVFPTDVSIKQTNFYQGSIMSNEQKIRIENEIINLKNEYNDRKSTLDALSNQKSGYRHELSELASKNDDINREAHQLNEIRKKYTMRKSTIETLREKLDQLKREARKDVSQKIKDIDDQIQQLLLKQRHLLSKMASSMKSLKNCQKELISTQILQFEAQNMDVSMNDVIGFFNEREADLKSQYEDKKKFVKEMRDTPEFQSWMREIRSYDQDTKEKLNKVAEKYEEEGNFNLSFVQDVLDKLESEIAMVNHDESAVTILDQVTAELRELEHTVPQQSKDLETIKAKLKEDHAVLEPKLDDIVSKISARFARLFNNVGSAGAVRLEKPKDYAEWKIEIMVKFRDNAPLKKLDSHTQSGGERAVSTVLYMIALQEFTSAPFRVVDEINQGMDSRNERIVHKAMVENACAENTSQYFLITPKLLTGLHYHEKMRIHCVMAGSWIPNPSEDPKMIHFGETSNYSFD

Sgs1;Top3;Rmi1 [2] = molecular target: T4, Sgs1;Top3;Rmi1; assay: EMSA; 5-40 nM STR, 5 nM DNA; similar to HJ; 35 mM Tris-HCl pH 7.5, 1 mM DTT, 100 ug/ml BSA, 5 mM MgCl2, 130 mM KCl, 30 C, 10 min; native PAGE in TAE (6.5% STR and E3, 7% Esc2); details: protein: recombinant;recombinant;recombinant; tags: Flag;V5;GST; copies: 1;1;1; blunt
[3] = four-way Holliday junction of 4 strands

B1: Ubc9 (SUMO E2) (enzyme, budding yeast, UniProt P50623 1-157, looked up)
chain: MSSLCLQRLQEERKKWRKDHPFGFYAKPVKKADGSMDLQKWEAGIPGKEGTNWAGGVYPITVEYPNEYPSKPPKVKFPAGFYHPNVYPSGTICLSILNEDQDWRPAITLKQIVLGVQDLLDSPNPNSPAQEPAWRSFSRNKAEYDKKVLLQAKQYSK
notes: Ubc9, the SUMO E2 enzyme of budding yeast; source: E. coli, purified (previously published procedures)
- binding result (GST-Esc2-MRΔ): binds
- binding result (GST-Esc2-5E): binds

B2: HJ-DNA (H3/H5/H7/H8) (structured_DNA)
DNA 1: TTGATAAGAGGTCATTTGAATTCATGGCTTAGAGCTTAATTGCTGAATCTGGTGCTGGGATCCAACATGTTTTAAATATG
DNA 2: CATATTTAAAACATGTTGGATCCCAGCACCAGATTCAGCATACGTTACCGATCGTACGTTCGATGCTGGCTACTGCTAGC
DNA 3: GCTAGCAGTAGCCAGCATCGAACGTACGATCGGTAACGTAGTCGATTATCGAGATCAAGCTAGCATAGCCATAGCGCGAC
DNA 4: GTCGCGCTATGGCTATGCTAGCTTGATCTCGATAATCGACATTAAGCTCTAAGCCATGAATTCAAATGACCTCTTATCAA
- binding result (Esc2): binds
- binding result (Sgs1;Top3;Rmi1 [1]): binds
- binding result (Esc2-MRΔ; [3]): no binding
- binding result (Esc2-5E; [3]): no binding
- binding result (Mms21;Smc5): binds

B3: dsDNA (H3/H4) (dsDNA)
DNA 1: B2 DNA 1
DNA 2: CATATTTAAAACATGTTGGATCCCAGCACCAGATTCAGCAATTAAGCTCTAAGCCATGAATTCAAATGACCTCTTATCAA
- binding result (Sgs1;Top3;Rmi1 [2]): binds
- binding result (Esc2-MRΔ; blunt): no binding
- binding result (Esc2-5E; blunt): no binding
